Experimental findings from the supplement of paper PMC11316812 are described below.

± gives the standard deviation of the averaged measurements.

One series deals with MCF7. In words: percentage of EdU-negative (G0-arrested) nuclei per well, 72 h; higher = more G0 arrest. To be noted: reference: sequence is the full UniProt precursor, the tested protein was the secreted form or ectodomain.
A further series deals with hTERT-HMEC. Described as above. The conditions noted are these: reference: sequence is the full UniProt precursor, the tested protein was the secreted form or ectodomain.
Where [1] appears, read: protein concentration 0.0225 µM.
[2] abbreviates: protein concentration 0.0294275 µM.
Where [3] appears, read: protein concentration 0.294275 µM.
The mark [4] stands for this setting: protein concentration 0.0095 µM.
Where [5] appears, read: protein concentration 0.02425 µM.
Where [6] appears, read: protein concentration 0.2425 µM.
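Note: secreted proteins added to cultured cells, EdU pulse at the end, nuclei found by Hoechst imaging, EdU status from nuclear versus surrounding ring intensity ratio, PBS as neutral control.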

Take “MTARAWASWRSSALLLLLVPGYFPLSHPMTVAGPVGGSLSVQCRYEKEHRTLNKFWCRPPQILRCDKIVETKGSAGKRNGRVSIRDSPANLSFTVTLENLTEEDAGTYWCGVDTPWLRDFHDPIVEVEVSVFPAGTTTASSPQSSMGTSGPPTKLPVHTWPSVTRKDSPEPSPHPGSLFSNVRFLLLVLLELPLLLSMLGAVLWVNRPQRSSRSRQNWPKGENQ”: the “percentage of EdU-negative” value with MCF7 (setting [1]) turned out to be 26.2 ± 3.7%; in the series with MCF7 (protein concentration 0.225 µM), 23.5 ± 0.75%; in the series with hTERT-HMEC (setting [1]), 5.08 ± 0.64%; in the series with hTERT-HMEC (protein concentration 0.225 µM), 12.4 ± 10%.
Turning to “MERPSLRALLLGAAGLLLLLLPLSSSSSSDTCGPCEPASCPPLPPLGCLLGETRDACGCCPMCARGEGEPCGGGGAGRGYCAPGMECVKSRKRRKGKAGAAAGGPGVSGVCVCKSRYPVCGSDGTTYPSGCQLRAASQRAESRGEKAITQVSKGTCEQGPSIVTPPKDIWNVTGAQVYLSCEVIGIPTPVLIWNKVKRGHYGVQRTELLPGDRDNLAIQTRGGPEKHEVTGWVLVSPLSKEDAGEYECHASNSQGQASASAKITVVDALHEIPVKKGEGAEL”, the “percentage of EdU-negative” value with MCF7 (setting [2]) is 25.4 ± 0.77%; with MCF7 (setting [3]), 26.5 ± 1.5%; in the series with hTERT-HMEC (setting [2]), 4.88 ± 0.84%; in the series on hTERT-HMEC (setting [3]) it was 5.65 ± 0.3%.
As to “MKFQGPLACLLLALCLGSGEAGPLQSGEESTGTNIGEALGHGLGDALSEGVGKAIGKEAGGAAGSKVSEALGQGTREAVGTGVRQVPGFGVADALGNRVGEAAHALGNTGHEIGRQAEDVIRHGADAVRGSWQGVPGHNGAWETSGGHGIFGSQGGLGGQGQGNPGGLGTPWVHGYPGNSAGSFGMNPQGAPWGQGGNGGPPNFGTNTQGAVAQPGYGSVRASNQNEGCTNPPPSGSGGGSSNSGGGSGSQSGSSGSGSNGDNNNGSSSGGSSSGSSSGGSSGGSSGGSSGNSGGSRGDSGSESSWGSSTGSSSGNHGGSGGGNGHKPGCEKPGNEARGSGESGIQNSETSPGMFNFDTFWKNFKSKLGFINWDAINKNQVPPPSTRALLYFSRLWEDFKQNTPFLNWKAIIEGADASSLQKRAGRDDQNYNYNQHAYPTAYGGKYSVKTPAKGGVSPSSSASRVQPGLLQWVKFW [Q6E0U4]”, the “percentage of EdU-negative” value amounted to 27.8 ± 1.4% with MCF7 (setting [4]), 27.7 ± 1.7% with MCF7 (protein concentration 0.095 µM), 4.68 ± 0.29% in the series on hTERT-HMEC (setting [4]) and 24.6 ± 4.2% in the series on hTERT-HMEC (protein concentration 0.095 µM).
“MPEEGSGCSVRRRPYGCVLRAALVPLVAGLVICLVVCIQRFAQAQQQLPLESLGWDVAELQLNHTGPQQDPRLYWQGGPALGRSFLHGPELDKGQLRIHRDGIYMVHIQVTLAICSSTTASRHHPTTLAVGICSPASRSISLLRLSFHQGCTIASQRLTPLARGDTLCTNLTGTLLPSRNTDETFFGVQWVRP”: the “percentage of EdU-negative” value is 26.5 ± 2.2% in the series on MCF7 (setting [1]), 26.6 ± 0.44% in the series with MCF7 (protein concentration 0.225 µM), 5.04 ± 0.08% in the series on hTERT-HMEC (setting [1]) and 5.11 ± 0.64% with hTERT-HMEC (protein concentration 0.225 µM).
Take “MKTLAGLVLGLVIFDAAVTAPTLESINYDSETYDATLEDLDNLYNYENIPVDKVEIEIATVMPSGNRELLTPPPQPEKAQEEEEEEESTPRLIDGSSPQEPEFTGVLGPHTNEDFPTCLLCTCISTTVYCDDHELDAIPPLPKNTAYFYSRFNRIKKINKNDFASLSDLKRIDLTSNLISEIDEDAFRKLPQLRELVLRDNKIRQLPELPTTLTFIDISNNRLGRKGIKQEAFKDMYDLHHLYLTDNNLDHIPLPLPENLRALHLQNNNILEMHEDTFCNVKNLTYIRKALEDIRLDGNPINLSKTPQAYMCLPRLPVGSLV”: the “percentage of EdU-negative” value in the series on MCF7 (setting [5]) worked out at 23.5 ± 1%; with MCF7 (setting [6]) it was 26.2 ± 2.6%; with hTERT-HMEC (setting [5]), 4.4 ± 0.046%; in the series with hTERT-HMEC (setting [6]), 6.32 ± 0.2%.
“MQGPWVLLLLGLRLQLSLGVIPAEEENPAFWNRQAAEALDAAKKLQPIQKVAKNLILFLGDGLGVPTVTATRILKGQKNGKLGPETPLAMDRFPYLALSKTYNVDRQVPDSAATATAYLCGVKANFQTIGLSAAARFNQCNTTRGNEVISVMNRAKQAGKSVGVVTTTRVQHASPAGTYAHTVNRNWYSDADMPASARQEGCQDIATQLISNMDIDVILGGGRKYMFPMGTPDPEYPADASQNGIRLDGKNLVQEWLAKHQGAWYVWNRTELMQASLDQSVTHLMGLFEPGDTKYEIHRDPTLDPSLMEMTEAALRLLSRNPRGFYLFVEGGRIDHGHHEGVAYQALTEAVMFDDAIERAGQLTSEEDTLTLVTADHSHVFSFGGYTLRGSSIFGLAPSKAQDSKAYTSILYGNGPGYVFNSGVRPDVNESESGSPDYQQQAAVPLSSETHGGEDVAVFARGPQAHLVHGVQEQSFVAHVMAFAACLEPYTACDLAPPACTTDAAHPVAASLPLLAGTLLLLGASAAP”: the “percentage of EdU-negative” value in the series with MCF7 (setting [1]) came to 24.8 ± 1.8%; in the series with MCF7 (protein concentration 0.225 µM), 24.4 ± 0.42%; in the series on hTERT-HMEC (setting [1]), 5.37 ± 0.33%; with hTERT-HMEC (protein concentration 0.225 µM) it was 6.16 ± 1.5%.
